Data taken from patent publication US20130052670A1 (MERCK, published 2013).

How the values were obtained:
[1] = target: T1, Aβ oligomers (ADDLs, amyloid-β derived diffusible ligands) prepared from Aβ42 (UniProt P05067 672-713); experiment: one-sided ELISA, plate coated with Aβ oligomers (50 pmol/well), 19.3 titrated, anti-human IgG-AP, luminescence
T1 construct: domain: amyloid β peptide 1-42; Heterogeneous mixture of multimers; number of chains not defined; Concentrations are calculated on the Aβ monomer molecular weight (MW 4513); also called ADDL species of Aβ oligomers; Aβ oligomer standards
T1 sequence (P05067 672-713 limits assumed): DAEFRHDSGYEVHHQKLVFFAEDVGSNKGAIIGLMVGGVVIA
Method: (§1) Next day, plates were washed five times with PBS+0.05% Tween-20 and blocked overnight with Casein blocking buffer (Thermo Scientific, Waltham, Mass.) and 0.05% Tween-20. […] After two hours at room temperature incubation, the plates were washed and alkaline phosphatase conjugated anti-human IgG (ThermoScientific, Waltham, Mass.) was added at 0.08 μg/ml. After incubation for 45 minutes at room temperature, the plates were washed and Tropix CDP star (Applied Biosystems, Foster City, Calif.) was added. Luminescence was detected after 30 minutes on an EnVision® plate reader (PerkinElmer, Waltham, Mass.). Curve fits were completed using GraphPad Prism (GraphPad Software, Inc., San Diego, Calif.) software.

[2] = target: T2, Aβ40 monomer (amyloid β peptide 1-40) (UniProt P05067 672-711); experiment: one-sided ELISA, plate coated with Aβ40 monomer (100 pmol/well), 19.3 titrated, anti-human IgG-AP, luminescence
T2 construct: domain: amyloid β peptide 1-40; also called monomeric Aβ40; Aβ monomer
T2 sequence (P05067 672-711 limits assumed): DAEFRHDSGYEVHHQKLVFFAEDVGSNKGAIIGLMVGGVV
Method: as §1

[3] = target: T1, Aβ oligomers (ADDLs, amyloid-β derived …); experiment: one-sided ELISA on coated plates
Method: as §1

B1: anti-Aβ oligomer antibody 19.3 (antibody, V domains shown)
VH: EVQLVESGGGLVQPGGSLRLSCAASGFTFSSFGMHWVRQAPGKGLEWVAYISRGSSTIYYADTVKGRFTISRDNAKNSLYLQMNSLRAEDTAVYYCARGITTALDYWGQGTLVTVSS
VL: DVVMTQSPLSLPVTPGEPASISCRSSQSIVHSNGNTYLEWYLQKPGQSPQLLIYKASNRFSGVPDRFSGSGSGTDFTLKISRVEAEDVGVYYCFQGSRLGPSFGQGTKLEIK
notes: In the sandwich assays it was coated on plates or covalently coupled to paramagnetic micro-particle beads; not shown: human immunoglobulin kappa light chain constant region
EC50 [1]: 1.6 nM | EC50 [2]: 4.3 nM | fold greater potency than for Aβ40 monomer [3]: ~3.7 fold
